According to PMC4579573, “Higher -Order Assembly of BRCC36–KIAA0157 Is Required for DUB Activity and Biological Function” (Molecular cell, 2015):

B1: zebrafish BRISC complex (complex)
chain 1: MAVNAVHLESDAFLVCMNHALSTEKEEVMGLCIGEVDTNRIVHIHSVIILRRSDKRKDRVEISPEQLSAASTEAERLAEMTGRPMRVVGWYHSHPHITVWPSHVDVRTQAMYQMMDQGFVGLIFSCFIEDKNTKTGRVLYTCFQSVQAQKGSEYERIEIPIHVVPHEAIGKVCLESAVELPRILCQEEQDTYRRIHSLTHLDPITKIHNGSVFTKNLCSQMSAISGPLLQWLEDRLEQNKQSIITLQKEKELLTQELAAL
chain 2: not shown
chain 3: MNSLSPELALSRISPELRPLLCSIVRNGRVGLDSSSCLRITDLKSGCTSLMPGPCCDRFKLHIPYAGETLKWDIIFNARDPELPPDFIFGEDADFLPEPSELPNLVSWDSGKPECLLLLVKEMLQQYHQYQCQRLRDSSRLLFEYDSLLEDPNYGRNMEIYAGRKNSWTGEFSARFLLKLPVDFSNIPIYLLKDTALDPGEDVALLSVSFEDAEATQVFPKLYLSPSIEHALGGSSALHIPAFPSGGCLIDYVPQVCQLLTNKVQYVIQGYHKRREYIAAFLSHFGMGVVEYDAVGFTKLTLLLMWKDFCFLVHVDLPLYFPRDQPTLTFQSIYHFTSSGQLYSQVQKSYPYSPRWDGNEMAKRAKAYFKSFIPQFQEGAFANGKL
chain 4: METTEPGQADGEERMMDLRPRTRSNPEGAEDRRSSTGSLNSSLPSAPQPAVGSRVEGEGEAASSDSPPVSATAIAATASVPVAAVGNTTTTNTASLPAMSPAVKERPKPSQPTMPTQIPPSAELHLRAPRVNCPEKVIICLDLSEEMSLQKLESINGSKTNALNISQKMIEMFVRTKHKIDKRHEFALVVVNDDAMWLSGFTSDPRELCSCLYDLETNVCESFNLEDLFNVILQKIELPQMENIQTIPPPFVVRTLLVFSRHAGMLQFNPSDAVKKMLQSPYFFFDVVFLHNGTEEQTEDTSWKDVYASFCELDTKGMCYRFEVSLCGPAIELHNCMAKLLCHPLQRPFQSHASYSLLEDEDTLENEATV
B2: Dr BRCC36–KIAA0157 binary complex (complex)
chain 1: B1 chain 1
chain 2: not shown
B3: C. floridanus BRISC complex (complex)
chain 1: MDDSSLQKVELQTDVYMVCLQHALSTENFEVMGLLIGNFACGIAKISAVIILRRLDKKKDRVEISSEQLLKAAAEAERLTVELNRPMRVLGWYHSHPHITVCPSHVDVRTQATYQTMDHSFVGLIFSVFSEGKESKEHEIFLNCFQSDNGEATEIPLEIVHTPDISDRCLRTMTDLSKILVQEEEDMAEACKDHPDVLASIHNNAVRTRALIHITDIITKPLVQTFEKRIALNKLRATHLQRQLQELQKMCNG
chain 2: MADSDLLVTISGAALSLLFFENVRSVGNQMGFLLGEALEFIVKTYTDSDNQVETVKIHINVEAIVTCPLADLLHDSTNHINKEKLKDFVRDKSKQVIGWFCFRRNTTNLTLTLKDKLLHKQFASHFSGVNGCKEDFFLTCLLNASTSETSGTHKFRHVFLRHNKRGMFEPISLKINNLGDDASRHDGSDYKPTPVRKSTRTPDSFTKLIESLNLDVARIDGLDSAMLIQKAAEHHLMSLIPKVCESDLEVAELEKQVHELKIKIATQQLAKRLKINGENCDRISKASKDNCFSEKIDSSKKNEVRIGDDACLQREHIPSCTQSVGPNNRTVCRNTAACIAKSAEKSRRAGRSNLQESGNQQQETQNFFTNSRRSIPEIATESICQEGSEISMGRGRGSGRGSHEFTPGMKKIRRTPGTSHMHSSRERSTTPPEQDFSDAECPISSPVLRSYSQVTKKTNLDKCNSMAPLDI
chain 3: MLNQQHPLLSTIDSYIEPLLKRVLQTKRLGVCCGLIKLDSVSSSCNKSKNDCFKLSIPYAGEHLVWSVLFDSQYPEMGPDFIFNDQSFLADPDINTLSTWIPSLTKWNPNDIDALLNVLSELLLYYKEHQLHLLGKQGDRLQFEYSTLVGETEISREDIEVIMLPLGTKPTEARFLIRIVMDYSRLPPRINKSQNDEAMLIIMFYGPDWNRIIPQLYLSKTLEDIFGGPESLHIPPFPSSKYLMDYVPEVKKFIDEKIHNVVQSFESRKSFITVLIVSQRGSILEYDAIEFNWISMLLEHRDFHFLIHFHLPSTFPKEKPQITLQSVYHMTSQGTLYKEVLDDTPYSPRWQIILMVDKLLTYIMENAVQKFQANSMKNRF
B4: CfBRCC36 (enzyme, C. floridanus, UniProt E2AXC7 1-253, looked up)
chain: B3 chain 1
notes: BRCC36 of Camponotus floridanus, residues 1-253; The crystal of PDB 5CW4 held seleno-methionine protein; also called C. floridanus BRCC36; B36; source: insect cells (MultiBac expression system), co-expressed with its partners, purified

Assays:
[1] = target: the molecule itself; assay: SEC-MALS; complexes and subcomplexes purified from insect cells; size exclusion chromatography coupled to multi-angle light scattering (Figures S1B-E and S8E-G)
[2] = target: the molecule itself; assay: crystal structure; CfBRCC36–KIAA0157ΔC, seleno-methionine-SAD, two heterodimers in the asymmetric unit, 2.55 Å

Protein	stoichiometry N [1]	binding result [2]
B1	2	
B2	2	
B3	2	
B4		binds
